This is an account of results in patent US20150266963A1.

Assay [1] deals with T1, recombinant human CD70 (Flag-TNC-CD70) (human) (UniProt P32970).
T1 sequence (looked up): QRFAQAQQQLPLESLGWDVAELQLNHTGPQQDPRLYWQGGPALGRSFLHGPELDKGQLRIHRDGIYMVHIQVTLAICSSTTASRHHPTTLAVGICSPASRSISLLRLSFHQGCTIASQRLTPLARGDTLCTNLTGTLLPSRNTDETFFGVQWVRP
The assay can be described thus: blocking ELISA; human Flag-TNC-CD70; competitor CD27-Fc.

The target in assay [2] is T2, human CD70 expressed on the surface of cells (human) (UniProt P32970).
T2 sequence (looked up): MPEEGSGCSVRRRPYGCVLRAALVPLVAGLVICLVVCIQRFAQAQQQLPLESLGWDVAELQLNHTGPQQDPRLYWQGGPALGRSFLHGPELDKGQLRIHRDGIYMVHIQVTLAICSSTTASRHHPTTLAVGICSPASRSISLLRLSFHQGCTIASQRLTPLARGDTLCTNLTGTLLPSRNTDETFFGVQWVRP
Briefly: flow cytometry on U266 cells, goat anti human IgG1 FITC [panel U266].

In assay [3] the target is T1, recombinant human CD70 (Flag-TNC-CD70) (human). Briefly: blocking ELISA; Flag-TNC-CD70 captured by anti-FLAG M2; competitor CD27-Fc 6.5 nM.
Assay [4] addresses T2, human CD70 expressed on the surface of cells (human). The assay can be described thus: flow cytometry on U266 cells, 1 h at 4 °C, anti-hIgG1-Fc-FITC or anti-hIgG-Fc-PE [panel U266].
For assay [5] the target is unchanged. The assay can be described thus: flow cytometry on SU-DHL-6 cells, 1 h at 4 °C, anti-hIgG1-Fc-FITC or anti-hIgG-Fc-PE [panel SU-DHL-6].

For the substance MDX1411 (antibody), the concentration for half-maximal inhibition (IC50) amounted to 0.044 µg/mL in assay [1] and 5.5 µg/mL in assay [3]. Moreover, the results for the EC50 (read off the curve) in assay [2], in assay [4] and in assay [5] were 0.1 µg/mL, 0.1 µg/mL and 2 µg/mL, respectively.
